Results as given in the Human Domainome abundance scans (Beltran et al. 2025).
± gives the uncertainty stated by the source.

B1: Tyrosine-protein kinase Lck, residues 63 to 120; numbered along this chain, P06239 (parent)
chain: DNLVIALHSYEPSHDGDLGFEKGEQLRILEQSGEWWKAQSLTTGQEGFIPFNFVAKAN

Variants of: B1
Assay: abundance fitness (aPCA) (normalised: wild type 0, dead -1); higher = more abundant; growth selection in yeast, the domain comes from the species named
Conditions: Homo sapiens

Variant	abundance fitness
R27P	-0.914 ± 0.29
R27G	-0.881 ± 0.12
R27W	-0.44 ± 0.15
R27E	-0.022 ± 0.14
R27Y	-0.193 ± 0.3
R27D	-0.421 ± 0.13
R27F	-0.448 ± 0.13
A38W	-0.598 ± 0.19
A38R	-1.08 ± 0.15
A38N	-0.445 ± 0.26
A38G	-0.483 ± 0.077
A38I	-0.788 ± 0.3
A38M	-0.656 ± 0.2
A38F	-0.771 ± 0.28
A38E	-0.934 ± 0.19
A38L	-0.337 ± 0.1
P12R	-0.705 ± 0.082
P12C	-0.387 ± 0.12
P12Y	-0.525 ± 0.16
P12L	-0.913 ± 0.12
P12F	-1.08 ± 0.21
P12T	-0.529 ± 0.1
P12I	-0.506 ± 0.16
F53W	-0.107 ± 0.11

Variant	abundance fitness
F53K	-0.37 ± 0.13
F53V	-0.268 ± 0.066
F53Q	-0.293 ± 0.1
F53E	-0.488 ± 0.12
F53I	-0.156 ± 0.11
F53L	-0.028 ± 0.071
F53H	-0.162 ± 0.11
L29R	-0.591 ± 0.091
L29Y	-0.227 ± 0.32
L29C	-0.441 ± 0.15
L29D	-0.852 ± 0.18
V54N	-0.859 ± 0.24
V54H	-0.967 ± 0.23
V54S	-0.751 ± 0.11
V54L	-0.705 ± 0.1
V54W	-0.754 ± 0.11
V54M	-0.715 ± 0.2
K22C	-0.303 ± 0.12
K22M	-0.514 ± 0.13
K22L	-0.625 ± 0.09
S32W	-0.455 ± 0.14
S32K	0.06 ± 0.13
G47F	-0.982 ± 0.45
G47R	-0.687 ± 0.085

Variant	abundance fitness
G47C	-1.07 ± 0.18
W36E	-0.881 ± 0.16
W36L	-0.101 ± 0.079
W36D	-0.614 ± 0.18
W36V	-0.1 ± 0.076
W36G	-0.283 ± 0.067
W36K	-0.521 ± 0.22
W36C	-0.046 ± 0.098
F20H	-0.836 ± 0.49
F20A	-0.52 ± 0.096
F20Q	-0.825 ± 0.17
F20P	-0.818 ± 0.21
F20I	-0.47 ± 0.26
F20M	-0.293 ± 0.14
S40K	-0.076 ± 0.13
S40M	-0.918 ± 0.17
S40Y	-0.862 ± 0.21
S40R	-0.107 ± 0.067
S40T	-0.484 ± 0.14
S40F	-0.908 ± 0.12
D15P	-0.075 ± 0.11
D15A	-0.046 ± 0.11
D15F	-0.148 ± 0.18
D15C	-0.196 ± 0.12

Variant	abundance fitness
D15L	-0.106 ± 0.078
D15R	-0.053 ± 0.069
D15V	-0.273 ± 0.098
D15K	0.111 ± 0.12
V4R	-0.29 ± 0.2
V4N	-0.727 ± 0.35
V4H	-0.073 ± 0.28
V4M	-0.173 ± 0.3
G23H	-0.397 ± 0.2
G23I	-0.79 ± 0.22
G23S	-0.635 ± 0.094
G23N	-0.066 ± 0.15
G23C	-0.829 ± 0.26
F51D	-0.178 ± 0.12
F51P	0.07 ± 0.099
F51M	0.137 ± 0.12
F51N	0.043 ± 0.15
F51G	0.095 ± 0.071
E46M	-0.032 ± 0.11
E46F	-0.294 ± 0.13
E46K	-0.05 ± 0.16
E46C	-0.023 ± 0.11
I49A	-0.646 ± 0.11
I49W	-0.967 ± 0.13

Variant	abundance fitness
I49R	-0.792 ± 0.079
I49S	-0.939 ± 0.12
I49H	-0.794 ± 0.23
I49D	-0.801 ± 0.18
I49Y	-1.2 ± 0.28
I49V	-0.094 ± 0.071
I49T	-0.622 ± 0.14
A6C	-0.217 ± 0.14
A6Y	-0.99 ± 0.21
A6T	-0.113 ± 0.12
A6H	-0.756 ± 0.15
A6I	-0.772 ± 0.15
A6L	-0.845 ± 0.12
A6V	-0.556 ± 0.097
A6F	-0.907 ± 0.22
I28M	-0.662 ± 0.17
I28C	-0.658 ± 0.11
I28K	-0.903 ± 0.16
I28D	-0.833 ± 0.24
I28E	-0.969 ± 0.24
I28Q	-0.924 ± 0.28
L18Q	-0.876 ± 0.17
L18A	-0.591 ± 0.086
L18G	-0.717 ± 0.098

Variant	abundance fitness
D17C	-0.022 ± 0.12
D17T	-0.255 ± 0.14
D17L	-0.116 ± 0.082
D17F	-0.229 ± 0.3
Q45V	-0.187 ± 0.1
Q45K	-0.101 ± 0.15
Q45I	-0.662 ± 0.42
H14F	-0.187 ± 0.15
H14Q	-0.079 ± 0.11
H14S	-0.031 ± 0.088
H14I	-0.118 ± 0.15
H14V	-0.104 ± 0.071
L41W	-0.933 ± 0.12
L41C	-0.068 ± 0.1
L41P	-0.339 ± 0.14
L41E	-0.153 ± 0.099
L41K	-0.348 ± 0.16
L41F	-0.54 ± 0.12
L41I	-0.058 ± 0.14
L41G	-0.721 ± 0.08
K37Q	-0.406 ± 0.14
K37R	-0.046 ± 0.073
K37H	-0.388 ± 0.29
K37W	-0.152 ± 0.088

Variant	abundance fitness
K37S	-0.321 ± 0.085
K37C	-0.593 ± 0.12
G33L	-0.812 ± 0.12
G33C	-0.491 ± 0.13
G33V	-0.881 ± 0.12
G33D	-0.467 ± 0.11
G33P	-0.544 ± 0.14
G33Q	-0.767 ± 0.33
G33N	-0.145 ± 0.26
G33H	-0.633 ± 0.17
T43L	-0.831 ± 0.11
T43C	-0.949 ± 0.25
T43G	-0.658 ± 0.063
T43M	-0.766 ± 0.17
T43Y	-0.85 ± 0.2
T43Q	-0.549 ± 0.14
Q25I	-0.181 ± 0.13
Q25N	0.069 ± 0.21
Q25C	-0.096 ± 0.13
Q25M	0.022 ± 0.13
Q25E	-0.021 ± 0.11
H8T	-0.012 ± 0.11
H8R	0.034 ± 0.074
